Measurements as given in the supplement of paper PMC9112550, “Optimization of the antimicrobial peptide Bac7 by deep mutational scanning” (BMC Biology, 2022).

system: Escherichia coli TOP10; test: shrunken log2 fold change of peptide-encoding DNA abundance (4.5 h post-induction vs induction); higher = less antimicrobial activity (less host growth inhibition); conditions: time post-induction: 4.5 h; library: site-saturation at positions 5, 18, 19, 20
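Note: peptides expressed intracellularly from a pBAD plasmid library in pooled LB shake-flask culture, induced with 0.3% L-arabinose, DNA abundance read by NGS, three biological replicates, DESeq2 with apeglm shrinkage.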

| Sequence | shrunken log2 fold change |
| --- | --- |
| RRIRVRPPRLPRPRPRPMTKPRP | 0.0648 |
| RRIRTRPPRLPRPRPRPAMNPRP | -0.405 |
| RRIRVRPPRLPRPRPRPLDTPRP | -0.257 |
| RRIRTRPPRLPRPRPRPRCMPRP | -0.288 |
| RRIRQRPPRLPRPRPRPNPWPRP | 0.0932 |
| RRIRCRPPRLPRPRPRPFSHPRP | -0.608 |
| RRIRFRPPRLPRPRPRPDLDPRP | -0.0913 |
| RRIRHRPPRLPRPRPRPYAEPRP | -0.0381 |
| RRIRRRPPRLPRPRPRPVSCPRP | -0.121 |
| RRIRQRPPRLPRPRPRPDFPPRP | 0.065 |
| RRIRDRPPRLPRPRPRPFPRPRP | -0.135 |
| RRIRRRPPRLPRPRPRPTGRPRP | 0.489 |
| RRIRKRPPRLPRPRPRPKPLPRP | 0.687 |
| RRIRLRPPRLPRPRPRPGNPPRP | 0.0749 |
| RRIRNRPPRLPRPRPRPIASPRP | 0.0215 |
| RRIRNRPPRLPRPRPRPWCEPRP | 0.034 |
| RRIRVRPPRLPRPRPRPFHIPRP | -0.527 |
| RRIRMRPPRLPRPRPRPSNVPRP | -0.259 |
| RRIRHRPPRLPRPRPRPGPHPRP | -0.14 |
| RRIRDRPPRLPRPRPRPWVYPRP | -0.0138 |
| RRIRQRPPRLPRPRPRPEFFPRP | 0.0969 |
| RRIRIRPPRLPRPRPRPLDAPRP | -0.142 |

| Sequence | shrunken log2 fold change |
| --- | --- |
| RRIRLRPPRLPRPRPRPTDDPRP | -0.0495 |
| RRIRMRPPRLPRPRPRPGDTPRP | 0.064 |
| RRIRQRPPRLPRPRPRPRRFPRP | 0.222 |
| RRIRCRPPRLPRPRPRPIANPRP | 0.0422 |
| RRIRDRPPRLPRPRPRPAWLPRP | 0.266 |
| RRIRRRPPRLPRPRPRPATQPRP | 0.691 |
| RRIRFRPPRLPRPRPRPIWRPRP | 0.248 |
| RRIRLRPPRLPRPRPRPSLTPRP | -0.0866 |
| RRIRERPPRLPRPRPRPVDGPRP | 0.222 |
| RRIRIRPPRLPRPRPRPNNLPRP | -0.69 |
| RRIRTRPPRLPRPRPRPCNVPRP | -0.00968 |
| RRIRWRPPRLPRPRPRPDSDPRP | 0.0473 |
| RRIRPRPPRLPRPRPRPTKIPRP | -0.0764 |
| RRIRIRPPRLPRPRPRPAQEPRP | -0.0756 |
| RRIRARPPRLPRPRPRPTHPPRP | 0.586 |
| RRIRGRPPRLPRPRPRPHEAPRP | -0.000398 |
| RRIRHRPPRLPRPRPRPPHQPRP | -0.151 |
| RRIRQRPPRLPRPRPRPYNTPRP | -0.325 |
| RRIRLRPPRLPRPRPRPTCWPRP | 0.393 |
| RRIRPRPPRLPRPRPRPEGAPRP | 0.713 |
| RRIRIRPPRLPRPRPRPNLDPRP | -0.564 |
| RRIRYRPPRLPRPRPRPNLHPRP | -0.821 |

| Sequence | shrunken log2 fold change |
| --- | --- |
| RRIRARPPRLPRPRPRPDFNPRP | 0.0591 |
| RRIRFRPPRLPRPRPRPMHFPRP | -0.136 |
| RRIRRRPPRLPRPRPRPAPHPRP | 0.858 |
| RRIRERPPRLPRPRPRPMWRPRP | -0.0079 |
| RRIRERPPRLPRPRPRPANYPRP | -0.0934 |
| RRIRGRPPRLPRPRPRPRFQPRP | 0.158 |
| RRIRRRPPRLPRPRPRPAQHPRP | 0.369 |
| RRIRWRPPRLPRPRPRPQCIPRP | -0.0652 |
| RRIRQRPPRLPRPRPRPFRPPRP | -0.303 |
| RRIRERPPRLPRPRPRPKSDPRP | -0.0784 |
| RRIRWRPPRLPRPRPRPVPSPRP | 0.058 |
| RRIRQRPPRLPRPRPRPAIAPRP | 0.0382 |
| RRIRDRPPRLPRPRPRPASYPRP | -0.0767 |
| RRIRVRPPRLPRPRPRPARSPRP | -0.024 |
| RRIRIRPPRLPRPRPRPHNLPRP | -0.334 |
| RRIRARPPRLPRPRPRPYKLPRP | -0.467 |
| RRIRPRPPRLPRPRPRPMGVPRP | 0.0399 |
| RRIRTRPPRLPRPRPRPTKIPRP | -0.169 |
| RRIRGRPPRLPRPRPRPQTLPRP | 0.614 |
| RRIRPRPPRLPRPRPRPLMFPRP | -0.138 |
| RRIRDRPPRLPRPRPRPLHVPRP | -0.133 |
| RRIRMRPPRLPRPRPRPGCLPRP | 0.503 |

| Sequence | shrunken log2 fold change |
| --- | --- |
| RRIRKRPPRLPRPRPRPTCHPRP | 0.169 |
| RRIRERPPRLPRPRPRPMSAPRP | 0.00792 |
| RRIRTRPPRLPRPRPRPVKMPRP | -0.0502 |
| RRIRCRPPRLPRPRPRPHGVPRP | 0.015 |
| RRIRCRPPRLPRPRPRPKMWPRP | 1.22 |
| RRIRSRPPRLPRPRPRPLLCPRP | -0.039 |
| RRIRRRPPRLPRPRPRPALEPRP | 0.264 |
| RRIRVRPPRLPRPRPRPRHTPRP | 0.226 |
| RRIRERPPRLPRPRPRPIVSPRP | 0.0707 |
| RRIRARPPRLPRPRPRPMCCPRP | 0.335 |
| RRIRSRPPRLPRPRPRPEFLPRP | 0.278 |
| RRIRIRPPRLPRPRPRPKDTPRP | -0.224 |
| RRIRMRPPRLPRPRPRPAFDPRP | 0.629 |
| RRIRKRPPRLPRPRPRPGMKPRP | 0.516 |
| RRIRVRPPRLPRPRPRPLGLPRP | 0.122 |
| RRIRERPPRLPRPRPRPQGTPRP | 0.0468 |
| RRIRARPPRLPRPRPRPTYGPRP | -0.0482 |
| RRIRKRPPRLPRPRPRPTMGPRP | -0.0139 |
| RRIRSRPPRLPRPRPRPTWSPRP | -0.0422 |
| RRIRRRPPRLPRPRPRPCMWPRP | 0.313 |
| RRIRQRPPRLPRPRPRPNSWPRP | 0.0283 |
| RRIRWRPPRLPRPRPRPNHNPRP | -0.681 |

| Sequence | shrunken log2 fold change |
| --- | --- |
| RRIRRRPPRLPRPRPRPPNDPRP | 0.605 |
| RRIRFRPPRLPRPRPRPIEDPRP | -0.461 |
| RRIRDRPPRLPRPRPRPRNLPRP | -0.0438 |
| RRIRDRPPRLPRPRPRPSDPPRP | -0.0499 |
| RRIRRRPPRLPRPRPRPVDIPRP | -0.0798 |
| RRIRGRPPRLPRPRPRPMCWPRP | 0.859 |
| RRIRQRPPRLPRPRPRPWLNPRP | -0.0662 |
| RRIRFRPPRLPRPRPRPRGAPRP | 0.493 |
| RRIRWRPPRLPRPRPRPADAPRP | 0.739 |
| RRIRHRPPRLPRPRPRPRPSPRP | 0.466 |
| RRIRNRPPRLPRPRPRPTEEPRP | -0.00968 |
| RRIRKRPPRLPRPRPRPKINPRP | -0.116 |
| RRIRYRPPRLPRPRPRPIHYPRP | -0.655 |
| RRIRNRPPRLPRPRPRPFPLPRP | -0.0286 |
| RRIRERPPRLPRPRPRPPDSPRP | -0.303 |
| RRIRCRPPRLPRPRPRPWKGPRP | -0.0267 |
| RRIRARPPRLPRPRPRPCKLPRP | -0.693 |
| RRIRSRPPRLPRPRPRPFRSPRP | 0.00887 |
| RRIRRRPPRLPRPRPRPWGLPRP | -0.222 |
| RRIRPRPPRLPRPRPRPLYAPRP | 0.0267 |
| RRIRPRPPRLPRPRPRPQVTPRP | -0.0231 |
